In the experiment the target is globupain, wild-type zymogen (proenzyme) (unclassified Archaeoglobus species (metagenome)). The experiment in a line: SEC + AUC; SEC: Superdex 75 10/300 GL, 50 mM potassium phosphate pH 7.0, 150 mM NaCl, 500 uL of globupain at 1 mg/mL, calibrated with proteins of known molecular weight; AUC (p-0016): sedimentation velocity, 20°C, 50,000 rpm, 50 mM potassium phosphate pH 7.0, 150 mM NaCl, 1 mM EDTA, c(s) distribution in ….

Drawing on publication PMC10315481, this text covers stoichiometry N for 1 substance.

For the substance “globupain, wild-type zymogen (proenzyme)”, the stoichiometry N (commonly a count of units in the complex or per binding partner) worked out at 2.
